Source: publication PMC10940649, “Structural insights into human organic cation transporter 1 transport and inhibition” (Cell Discovery, 2024)

Biological target: T1, human organic cation transporter 1 (hOCT1) (Homo sapiens, UniProt O15245)
T1 construct: human organic cation transporter 1 (SLC22A1), full-length, wild-type construct used for cryo-EM structure determination; A 3C protease cleavage site stands between hOCT1 and GFPuv-His6; The FSEC-TS assay used hOCT1-GFP; also called SLC22A1; hOCT1-GFP; source: Sf9 insect cells (baculovirus), purified (Ni-NTA, protein C column, SEC) in DDM or LMNG micelles
T1 sequence (O15245 whole entry): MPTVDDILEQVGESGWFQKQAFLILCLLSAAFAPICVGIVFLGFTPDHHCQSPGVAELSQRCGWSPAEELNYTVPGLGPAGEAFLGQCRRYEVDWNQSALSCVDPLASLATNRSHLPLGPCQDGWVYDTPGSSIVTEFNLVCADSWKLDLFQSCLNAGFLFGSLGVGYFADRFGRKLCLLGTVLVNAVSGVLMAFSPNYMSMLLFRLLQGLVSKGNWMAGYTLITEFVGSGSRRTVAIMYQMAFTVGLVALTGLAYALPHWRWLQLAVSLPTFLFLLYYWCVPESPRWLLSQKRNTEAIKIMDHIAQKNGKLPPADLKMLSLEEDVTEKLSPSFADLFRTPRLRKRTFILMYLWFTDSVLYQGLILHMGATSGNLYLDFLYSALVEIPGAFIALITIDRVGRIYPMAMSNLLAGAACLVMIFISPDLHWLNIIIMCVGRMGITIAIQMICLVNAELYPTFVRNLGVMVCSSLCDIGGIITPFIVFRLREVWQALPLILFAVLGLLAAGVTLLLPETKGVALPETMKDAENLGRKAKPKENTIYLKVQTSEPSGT
Assay: SEC; Nb56 with hOCT1; co-migration on size exclusion chromatography
Settings: both partners purified

binding result: binds
B1: Nb56 (VHH)
VHH: QVQLQESGGGLVQAGGSLRLSCAASGTIFYYEIMGWYRQAPGKEREFVATIDQGGITNYADSVKGRFTISRDNAKNTVYLQMNSLKPEDTAVYYCAVPDVFVGRGWDYLIYWGQGTQVTVSS
notes: Nanobody selected from a synthetic yeast display library with hOCT1 in LMNG as bait; Nb56 was modelled in the deposited hOCT1-Nb5660 structures (hOCT1-apo1, -apo2, -apo3); source: E. coli BL21 (DE3), pET26b, purified (Ni-NTA, SEC)
